Reference: patent US20220396635A1 (UNIVERSIT T STUTTGART, published 2022)

B1: scDb/scFv-Fc (1-1)+2, trivalent bispecific anti-HER3×anti-CD3 (bispecific antibody)
chain 1: QVQLQQSGPGLVKPSQTLSLTCAISGDSVSSNRAAWNWIRQSPSRGLEWLGRTYYRSKWYNDYAQSLKSRITINPDTPKNQFSLQLNSVTPEDTAVYYCARDGQLGLDALDIWGQGTMVTVSSGGGGSQAGLTQPPAVSVAPGQTASITCGRDNIGSRSVHWYQQKPGQAPVLVVYDDSDRPAGIPERFSGSNYENTATLTISRVEAGDEADYYCQVWGITSDHVVFGGGTKLTVLGGGGSGGGGSGGGGSQVQLQQSGPGLVKPSQTLSLTCAISGDSVSSNRAAWNWIRQSPSRGLEWLGRTYYRSKWYNDYAQSLKSRITINPDTPKNQFSLQLNSVTPEDTAVYYCARDGQLGLDALDIWGQGTMVTVSSGGGGSQAGLTQPPAVSVAPGQTASITCGRDNIGSRSVHWYQQKPGQAPVLVVYDDSDRPAGIPERFSGSNYENTATLTISRVEAGDEADYYCQVWGITSDHVVFGGGTKLTVLAAADKTHTCPPCPAPPVAGPSVFLFPPKPKDTLMISRTPEVTCVVVDVSHEDPEVKFNWYVDGVEVHNAKTKPREEQYNSTYRVVSVLTVLHQDWLNGKEYKCKVSNKGLPSSIEKTISKAKGQPREPQVCTLPPSRDELTKNQVSLSCAVKGFYPSDIAVEWESNGQPENNYKTTPPVLDSDGSFFLVSKLTVDKSRWQQGNVFSCSVMHEALHNHYTQKSLSLSPGK
chain 2: DIQMTQSPSSLSASVGDRVTITCRASQDIRNYLNWYQQKPGKAPKLLIYYTSRLHSGVPSRFSGSGSGTDFTFTISSLQPEDIATYYCQQGNTLPWTFGQGTKLEIKRGGGGSGGGGSGGGGSQVQLVQSGAEVKKPGSSVKVSCKASGGTFSGYTMNWVRQAPGQGLEWMGLINPYKGVSTYNGKFKDRVTITADKSTSTAYMELSSLRSEDTAVYYCARSGYYGDSDWYFDVWGQGTLVTVSSAAADKTHTCPPCPAPPVAGPSVFLFPPKPKDTLMISRTPEVTCVVVDVSHEDPEVKFNWYVDGVEVHNAKTKPREEQYNSTYRVVSVLTVLHQDWLNGKEYKCKVSNKGLPSSIEKTISKAKGQPREPQVYTLPPCRDELTKNQVSLWCLVKGFYPSDIAVEWESNGQPENNYKTTPPVLDSDGSFFLYSKLTVDKSRWQQGNVFSCSVMHEALHNHYTQKSLSLSPGK
notes: The scDb is monospecific for HER3; the CD3 site sits in the scFv arm; also called scDb3-43x3-43-Fc(hole)Δab + scFvhuU3-Fc(knob)Δab
B2: scDb/Fab-Fc (1-1)+2, trivalent bispecific anti-HER3×anti-CD3 (bispecific antibody)
chain: B1 chain 1
heavy: QVQLVQSGAEVKKPGSSVKVSCKASGGTFSGYTMNWVRQAPGQGLEWMGLINPYKGVSTYNGKFKDRVTITADKSTSTAYMELSSLRSEDTAVYYCARSGYYGDSDWYFDVWGQGTLVTVSSASTKGPSVFPLAPSSKSTSGGTAALGCLVKDYFPEPVTVSWNSGALTSGVHTFPAVLQSSGLYSLSSVVTVPSSSLGTQTYICNVNHKPSNTKVDKKVEPKSCDKTHTCPPCPAPPVAGPSVFLFPPKPKDTLMISRTPEVTCVVVDVSHEDPEVKFNWYVDGVEVHNAKTKPREEQYNSTYRVVSVLTVLHQDWLNGKEYKCKVSNKGLPSSIEKTISKAKGQPREPQVYTLPPCRDELTKNQVSLWCLVKGFYPSDIAVEWESNGQPENNYKTTPPVLDSDGSFFLYSKLTVDKSRWQQGNVFSCSVMHEALHNHYTQKSLSLSPGK
light: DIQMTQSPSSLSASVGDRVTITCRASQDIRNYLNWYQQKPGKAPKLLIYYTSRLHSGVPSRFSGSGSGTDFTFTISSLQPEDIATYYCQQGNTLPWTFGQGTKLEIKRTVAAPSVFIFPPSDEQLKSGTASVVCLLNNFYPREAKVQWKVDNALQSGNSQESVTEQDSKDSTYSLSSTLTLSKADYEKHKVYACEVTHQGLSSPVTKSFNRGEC
notes: The scDb is monospecific for HER3; the CD3 site sits in the Fab arm; also called scDb3-43x3-43-Fc(hole)Δab + FdhuU3-Fc(knob)Δab + VLhuU3-CLK
B3: scDbhu225xhuU3 (bispecific antibody)
chain: EVQLVESGGGLVQPGGSLRLSCAASGFSLTNYGVHWVRQAPGKGLEWLGVIWSGGNTDYNTPFTSRFTISRDNSKNTLYLQMNSLRAEDTAVYYCARALTYYDYEFAYWGQGTTVTVSSGGGGSDIQMTQSPSSLSASVGDRVTITCRASQDIRNYLNWYQQKPGKAPKLLIYYTSRLHSGVPSRFSGSGSGTDFTFTISSLQPEDIATYYCQQGNTLPWTFGQGTKLEIKRGGGGSGGGGSGGGGSQVQLVQSGAEVKKPGSSVKVSCKASGGTFSGYTMNWVRQAPGQGLEWMGLINPYKGVSTYNGKFKDRVTITADKSTSTAYMELSSLRSEDTAVYYCARSGYYGDSDWYFDVWGQGTLVTVSSGGGGSDIQLTQSPSFLSASVGDRVTITCRASQSIGTNIHWYQQKPGKAPKLLIKYASESISGVPSRFSGSGSGTEFTLTISSLQPEDFATYYCQQNNNWPTTFGAGTKLEIKRAAAGGSGGGGSGGGTGGGGSLHHHHHH
notes: the end number was counted from the printed lines; The His tag is part of the entry; also called bispecific scDb targeting CD3 and EGFR
B4: scDbhu225xhuU3-scFvhu225 (bispecific antibody)
chain: EVQLVESGGGLVQPGGSLRLSCAASGFSLTNYGVHWVRQAPGKGLEWLGVIWSGGNTDYNTPFTSRFTISRDNSKNTLYLQMNSLRAEDTAVYYCARALTYYDYEFAYWGQGTTVTVSSGGGGSDIQMTQSPSSLSASVGDRVTITCRASQDIRNYLNWYQQKPGKAPKLLIYYTSRLHSGVPSRFSGSGSGTDFTFTISSLQPEDIATYYCQQGNTLPWTFGQGTKLEIKRGGGGSGGGGSGGGGSQVQLVQSGAEVKKPGSSVKVSCKASGGTFSGYTMNWVRQAPGQGLEWMGLINPYKGVSTYNGKFKDRVTITADKSTSTAYMELSSLRSEDTAVYYCARSGYYGDSDWYFDVWGQGTLVTVSSGGGGSDIQLTQSPSFLSASVGDRVTITCRASQSIGTNIHWYQQKPGKAPKLLIKYASESISGVPSRFSGSGSGTEFTLTISSLQPEDFATYYCQQNNNWPTTFGAGTKLEIKRAAAGGSGGGGSGGGTEVQLVESGGGLVQPGGSLRLSCAASGFSLTNYGVHWVRQAPGKGLEWLGVIWSGGNTDYNTPFTSRFTISRDNSKNTLYLQMNSLRAEDTAVYYCARALTYYDYEFAYWGQGTTVTVSSGGGGSGGGGSGGGGSDIQLTQSPSFLSASVGDRVTITCRASQSIGTNIHWYQQKPGKAPKLLIKYASESISGVPSRFSGSGSGTEFTLTISSLQPEDFATYYCQQNNNWPTTFGAGTKLEIKRSLHHHHHH
notes: the end number was counted from the printed lines; The His tag is part of the entry; also called scDb-scFv; trivalent, bispecific bisAb targeting EGFR and CD3

Experiments:
HER3 [1] = target: T1, HER3 (UniProt P21860 20-1342, limits assumed); test: cell-based or functional assay
CD3 [2] = target: T2, CD3 (UniProt P07766 23-207); test: flow cytometry, serial dilution on Jurkat cells (CD3-expressing), PE anti-human Fc detection
T2 construct: whole, on cells; on cells it stands in the TCR/CD3 complex; also called CD3 on Jurkat cells
Protocol: (§1) Binding of trivalent, bispecific fusion proteins to HER3-expressing (LIM1215, MCF-7) and CD3-expressing (Jurkat) cell lines was analyzed by flow cytometry. 2×10⁵ cells/well were incubated with a serial dilution of trivalent, bispecific antibodies for 1 h at 4° C. followed by detection using a PE-conjugated anti-human Fc antibody (Jackson ImmunoResearch Laboratories Inc). […] Concerning binding to the CD3-expressing cell line Jurkat, the trivalent, bispecific antibodies in the (1-2)+1 and in the (2−1)+1 orientation bound with EC₅₀ values in the low nanomolar range.

HER3 [3] = target: T1, HER3; test: flow cytometry, serial dilution on LIM1215 cells (HER3-expressing), PE anti-human Fc detection
Protocol: as §1

HER3 [4] = target: T1, HER3; test: flow cytometry, serial dilution on MCF-7 cells (HER3-expressing), PE anti-human Fc detection
Protocol: as §1

EGFR [5] = target: T3, EGFR (UniProt P00533 25-1210, limits assumed); test: cell-based or functional assay
CD3 [6] = target: T2, CD3; test: flow cytometry, serial dilution on Jurkat cells (CD3-expressing), PE anti-His detection
EGFR [7] = target: T3, EGFR; test: flow cytometry, serial dilution on FaDu cells (EGFR-expressing), PE anti-His detection
Protocol: (§2) Binding analysis of scDb and scDb-scFv was performed by flow cytometry using tumor cell lines with different EGFR-expression levels (Table 7). Adherent cells were washed with PBS and shortly trypsinized at 37° C. Trypsin was quenched with FCS-containing medium and removed by centrifugation (500×g, 5 min.). 1×10⁵ target cells/well (FaDu, Lim1215, T-47-D and SKBR-3) were incubated with a serial dilution of scDb or scDb-scFv for 1 h at 4° C. After removing excess of recombinant protein by washing with PBA (PBS, 2% FBS, and 0.02% sodium azide), bound protein was detected using PE-conjugated anti-hexahistidyl tag mAb (Miltenyi Biotec). Fluorescence was measured using MACSquant Analyzer 10 (Miltenyi Biotec) and data were analyzed using FlowJo (Tree Star). Relative median fluorescence intensities (MFI) were calculated as followed: relative MFI=((MFIₛₐₘₚₗₑ-(MFIdetection-MFIcells))/MFIcells).

EGFR [8] = target: T3, EGFR; test: flow cytometry, serial dilution on LIM1215 cells (EGFR-expressing), PE anti-His detection
Protocol: as §2

EGFR [9] = target: T3, EGFR; test: flow cytometry, serial dilution on T-47-D cells (EGFR-expressing), PE anti-His detection
Protocol: as §2

EGFR [10] = target: T3, EGFR; test: flow cytometry, serial dilution on SKBR-3 cells (EGFR-expressing), PE anti-His detection
Protocol: as §2

Binder | EC50 of proliferation of CD4+ T-cells, MCF-7 co-culture (HER3 [1]) | EC50 of proliferation of CD8+ T-cells, MCF-7 co-culture (HER3 [1]) | EC50 (CD3 [2]) | EC50 (HER3 [3]) | EC50 (HER3 [4]) | EC50 of PBMC cytotoxicity on FaDu cells, E:T 10:1 (EGFR [5]) | EC50 of PBMC cytotoxicity on LIM1215 cells, E:T 10:1 (EGFR [5]) | EC50 of PBMC cytotoxicity on SKBR-3 cells, E:T 10:1 (EGFR [5]) | EC50 of PBMC cytotoxicity on T-47-D cells, E:T 10:1 (EGFR [5]) | EC50 (CD3 [6]) | EC50 (EGFR [7]) | EC50 (EGFR [8]) | EC50 (EGFR [9]) | EC50 (EGFR [10])
B1 | 393 pM | 191 pM | 700 pM | 882 pM | 400 pM | – | – | – | – | – | – | – | – | –
B2 | – | – | 8700 pM | 249 pM | 700 pM | – | – | – | – | – | – | – | – | –
B3 | – | – | – | – | – | > 10000 pM | > 10000 pM | > 10000 pM | > 10000 pM | 5400 pM | 1400 pM | 1600 pM | 1100 pM | 2300 pM
B4 | – | – | – | – | – | 9 pM | 7 pM | 2 pM | 90 pM | 6400 pM | 500 pM | 500 pM | 90 pM | 300 pM
